Assay results reported in US9951359B2, “Heat-stable, FE-dependent alcohol dehydrogenase for aldehyde detoxification” (UT-BATTELLE, LLC, priority 2013, dated 2018).
Like-named read-outs stand apart in the source and are kept apart here.

What was measured:
[1] = test system: Thermoanaerobacter pseudethanolicus 39E (Teth39E); test: Growth of Teth39E with furan aldehydes (optical density at 600 nm); format: cell-based; conditions: for specific growth rate: 65° C.; for IC50: Thermoanaerobacter pseudethanolicus, read-out: furan aldehyde concentration which resulted in 50% inhibition of growth (IC50)
Protocol: Teth39E (DSMZ 2355) was purchased from Deutsche Sammlung von Mikroorganismen and Zellkulturen GmbH (DSMZ). Anaerobic growth medium was prepared anaerobically by a modified Hungate technique and consisted of 4.5 mM KCl, 4.7 mM NH4Cl, 2.5 mM MgSO4.7H2O, 1.0 mM NaCl, 0.7 mM CaCl2.2H2O, […] resazurin, 2.8 mM cysteine-HCl, 6.0 mM NaHCO3, 1 mM potassium phosphate buffer (pH 6.8), 10 mM 3-(N-morpholino)-propanesulfonic acid (pH 6.8), 1× Wolfe's trace minerals, 1× Wolfe's vitamin supplement, 0.1% (w/v) yeast extract, and 40 mM glucose [Miller and Wolin (1974) Appl. Microbiol. 27:985-987; Wolin et al. (1963) J. Biol. Chem. 238:2882-2886]. Furan aldehydes were added from degassed concentrated stock solutions. Cultures were grown at 65° C. from a 1% inoculum in Balch tubes (10 mL) or 125 mL serum bottles (50 mL) Cell growth was monitored by optical density at 600 nm, either directly in the Balch tube using a Spectronic 200 spectrophotometer (Thermo Fisher Scientific, Waltham, Mass.) or as 200 μL samples transferred to a 96-well plate and read on a Synergy Mx plate reader (BioTek, Winooski, Vt.). All growth experiments were performed in triplicate.
Lower concentrations of furfural (10 and 20 mM) and 5-hydroxymethylfurfural (10 mM) stimulated growth of Teth39E, with increased cell yields after 12 h for both (see FIGS. 1A and 1B). […] The IC50 for 5-HMF was between 20 and 30 mM after both 12 and 24 h.

[2] = test system: protein encoded by the Teth39_1597 locus (bdhA); test: Proteome comparison of Teth39E grown in the presence or absence of furfural; format: cell-based, Thermoanaerobacter pseudethanolicus 39E; conditions: Teth39E grown in the presence of 15 mM furfural
Protocol: To identify the enzymes responsible for furfural and 5-HMF conversion, the proteomes were compared for strain Teth39E grown in the presence or absence of 15 mM furfural.

[3] = test system: BdhA (Teth39_1597); test: Optimal temperature and pH of purified BdhA enzyme (butyraldehyde, NADPH); format: biochemical, Thermoanaerobacter pseudethanolicus 39E
Protocol: The optimal temperature for BdhA activity was determined from purified enzyme as follows. A 1 liter culture of E. coli BL21 (DE3) harboring the pET30a-BdhA expression construct (see FIG. 6A) was grown to mid-log phase and induced with 0.4 mM IPTG and allowed to incubate for 16 h at 30° C. with shaking at 250 rpm. The induced cells were harvested via centrifugation at 5,000×g for 20 min at 4° C. and washed 3 times with 40 mL ice-cold phosphate buffered saline (PBS) at pH 7.2 and placed on ice. The cell pellet was resuspended in binding buffer (20 mM sodium phosphate, 500 mM NaCl, 20-40 mM imidazole, pH 7.4) containing 0.2 mg/mL lysozyme, 20 μg/mL DNAse, 1 mM MgCl2, 1 mM PMSF and stirred for 30 min at room temperature. The cells were then subjected to 5×2 min rounds of sonication (Branson Sonifier 450 with microtip, duty cycle at 30%) while kept in an ice water bath. The lysate was centrifuged at 7,500×g for 20 min at 4° C. and the supernatant was transferred to a new 50 mL conical tube. […] For determining the optimal temperature for BdhA, 1 mL assays containing 100 mM phosphate buffer (pH 7.5), 20 mM butyraldehyde, and 0.25 mM NADPH were monitored for loss of absorbance at 340 nm for 20 seconds at 30-90° C. in 5° C. intervals. […]
The optimum pH was also determined for BdhA by using butyraldehyde as the substrate and NADPH as the cofactor. […]

[4] = test system: BdhA (Teth39_1597); test: Aldehyde reductase enzyme assay with whole cell lysates of E. coli overexpressing BdhA (NAD(P)H oxidation at 340 nm); format: biochemical, Thermoanaerobacter pseudethanolicus 39E; conditions: for specific activity with NADPH as a cofactor / BdhA Aldehyde Activities (specific activity): whole cell lysate; for BdhA Aldehyde Activities (specific activity): 60° C.; for BdhA Aldehyde Activities (specific activity) / Specific activity: aerobic
Protocol: Teth39E genomic DNA was isolated using the Wizard Genomic DNA Purification kit (Promega, Madison, Wis.). The bdha gene was PCR amplified using Phusion polymerase (New England Biolabs, Ipswich, Mass.) and cloned into pET30a (EMD Millipore, Billerica, Mass.) behind 6× His- and S-tags. Expression plasmids were transformed in BL21 (DE3) E. coli according to the manufacturer's protocol (Invitrogen, Grand Island, N.Y.). Cells were grown in 50 mL 2×YT medium at 37° C. to OD600 of 0.8-1.0, then induced with 100 μM isopropyl-β-D-thiogalactopyranoside and switched to 30° C. for 16 h. Cells were harvested at 4° C. (3,000×g, 30 min), washed in 50 mL 100 mM sodium phosphate buffer, pH 7 (buffer A), and re-suspended in 5 mL buffer A. Enzyme assays were performed aerobically at 60° C. with whole cell lysates and specific activity was determined by measuring the change in absorbance at 340 nm due to oxidation of NADPH or NADH.
Cell suspension (450 μL) was added to 0.1 mm zirconia beads (300 μL) and vortexed 4×60 sec with 30 sec on ice in between. Samples were centrifuged (14,000×g, 2 min) and the resulting supernatant was used for enzyme assays.
For the enzyme assays, Buffer A (1 mL), 10 mM NAD(P)H (25 μL), and 400 mM aldehyde (50 μL) were added to a 2 mL quartz cuvette, sealed with a butyl stopper, and equilibrated to 60° C. Assays were read at 340 nm (DU 800) for 150 sec to establish a baseline slope before whole cell lysate was added (1-5 μL). Cuvettes were inverted once to mix and read an additional 450 sec. The decrease in absorbance over time was calculated and the baseline slope was subtracted. NAD(P)H concentration was determined using the extinction coefficient (NADH: 6220 M^−1 cm ^−1, NADPH: 6270 M^−1 cm^−1) and specific activity was calculated as the change in μmoles NAD(P)H/min/mg of whole cell lysate protein. Protein concentration was determined using the Bradford assay (Bio-Rad, Hercules, Calif.) with bovine serum albumin as a standard. Specific activity was measured for the pET30a vector (control) and overexpressed Teth39_1597 (BdhA) with acetaldehyde, butyraldehyde, isobutyraldhyde, furfural, and 5-HMF. Furfural was also assayed under anaerobic conditions. BdhA activity was compared to the vector-only control.

Molecule | specific growth rate ([1]; 10 mM furan aldehyde) [h⁻¹] | IC50 ([1]; after 12 h) [mM] | IC50 ([1]; after 24 h) [mM] | expression of Teth39_1597 protein upregulated [2] | specific growth rate ([1]; 20 mM furan aldehyde) [h⁻¹] | optimal temperature for BdhA activity ([3]; 20 mM butyraldehyde, 0.25 mM NADPH, pH 7.5, 30-90° C.) [°C] | optimum pH (optimal relative activity) ([3]; butyraldehyde, NADPH, buffers pH 4-10) [pH units] | activity above the vector control using NADH as the cofactor ([4]; NADH as cofactor) | specific activity with NADPH as a cofactor ([4]; butyraldehyde as substrate) | activity against butyraldehyde ([4]; butyraldehyde, NADPH) | specific activity with NADPH as a cofactor ([4]; expressed in E. coli, various aldehydes) | BdhA Aldehyde Activities (specific activity) ([4]; substrate 5-HMF, NADPH) | BdhA Aldehyde Activities (specific activity) ([4]; substrate acetaldehyde, NADPH) | BdhA Aldehyde Activities (specific activity) ([4]; substrate butyraldehyde, NADPH) | BdhA Aldehyde Activities (specific activity) ([4]; substrate furfural, NADPH) | BdhA Aldehyde Activities (specific activity) ([4]; substrate isobutyraldehyde, NADPH) | Specific activity ([4]; with 5-HMF, NADPH) [U] | Specific activity ([4]; with furfural, NADPH) [U]
O=Cc1ccc(CO)o1 [5-HMF, 5-hydroxymethyl furfural] | 0.51 ± 0.03 | 20 to 30 | 20 to 30 | – | – | – | – | – | – | – | – | – | – | – | – | – | – | –
O=Cc1ccco1 [furfural] | 0.52 ± 0.03 | 30 | 30 to 40 | approximately 7 fold | 0.43 ± 0.03 | – | – | – | – | – | – | – | – | – | – | – | – | –
BdhA: heat-stable, NADPH- and iron-dependent alcohol dehydrogenase cloned from Thermoanaerobacter pseudethanolicus 39E (SEQ ID NO: 2) (protein, listed as Thermoanaerobacter pseudethanolicus) MMKFEFYNPTRLIFGAGSLGQLGKVVNQYGKKALLVIGGGSVKKSGAFDRAVASLKAAGVLVVEFSGVEPNPRLSTVVRASELAKKEACDVVIGMGGGSVMDASKVIAASVLYEGDPKDMLVRAGKAPRLPERALPIITVPTLAATGSEMNNGAVITIDDEGEKLKTFVQAEVLYPRVAVVDPELTMTVPKNHTAFGVCDIITHVTEGYFNGIDGTPLQDRFAEGVILTVLEWGPKAVSDGSDLEARTQVQWASIVALNGWVQVGTNGAYPVHMIEHTLSALYDIPHGAGLAVVNPAWMRFAARFRPERFAQFAQRIFGLTATGKDTLSLAMEGIDKFEEFLRSIGCPTRLSELGIGEITEEMLFRYAEETLKVLQDEEGRLPGRPSLRKEDIVEILRMAM | – | – | – | – | – | 75 | 8.0 | No activity was detected | at least 14 μmole/min/mg | approximately 14.58±3.57 μmoles/min/mg | at least 0.5 μmole/min/mg | 10.06 ± 0.80 | 4.54 ± 0.76 | 14.58 ± 3.57 | 4.97 ± 0.17 | 0.63 ± 0.29 | 10.06±0.80 | 4.97±0.17
